Literature values as cited in patent publication US5550213A, “Inhibitors of urokinase plasminogen activator” (Rutgers, The State University of New Jersey, priority 1993, dated 1996).

Target: urokinase (UK) (Homo sapiens, UniProt P00749)
Conditions: from Turpeinen et al. (PSTI), Christensen et al. (PAI-2); serpin Ki not functionally comparable to reversible inhibitors; read-out: Ki (nM) against UK, values obtained from the literature

Ki: < 0.01 nM
B1: PAI-2: placental type PA-inhibitor, a serpin, native inhibitor of urokinase (protein, UniProt P05120 1-415, looked up)
Plasminogen activator …: MEDLCVANTLFALNLFKHLAKASPTQNLFLSPWSISSTMAMVYMGSRGSTEDQMAKVLQFNEVGANAVTPMTPENFTSCGFMQQIQKGSYPDAILQAQAADKIHSSFRSLSSAINASTGNYLLESVNKLFGEKSASFREEYIRLCQKYYSSEPQAVDFLECAEEARKKINSWVKTQTKGKIPNLLPEGSVDGDTRMVLVNAVYFKGKWKTPFEKKLNGLYPFRVNSAQRTPVQMMYLREKLNIGYIEDLKAQILELPYAGDVSMFLLLPDEIADVSTGLELLESEITYDKLNKWTSKDKMAEDEVEVYIPQFKLEEHYELRSILRSMGMEDAFNKGRANFSGMSERNDLFLSEVFHQAMVDVNEEGTEAAAGTGGVMTGRTGHGGPQFVADHPFLFLIMHKITNCILFFGRFSSP
